Results as given in patent US10227575B2, “Multi-domain enzymes having cutinase activity, compositions comprising same and uses thereof” (OZYMES, priority 2015, dated 2019).
Where two headings read alike, the source gives them in different places. Marks after values point to notes of the source that are not given here.

Assays:
[1] = Thermostability of purified KrCUT (40-60° C.); format: biochemical
Protocol: Enzyme stability was studied over the temperature range of 40-60° C. using purified KrCUT. Aliquots were withdrawn at defined times (10, 30 and 80 min), chilled on ice, and assayed for activity against p-NP butyrate at room temperature. KrCUT appeared thermostable up to 45° C.

[2] = Potential inhibitors of cutinase activity; format: biochemical
Protocol: Esterase activity was determined by monitoring the formation of pNP at 410 nm from various pNP-esters using a Beckman UV spectrophotometer (model DU 640) (21). Substrates were dissolved in isopropanol and were added to 50 mM sodium phosphate buffer pH 8.0 to give 10% (v/v) total isopropanol concentration in a 1 mL reaction volume. pNP-butyrate was used at a final concentration of 1.2 mM. For pNP-caprylate, myristate and palmitate, the final concentration ranged from 0.1 to 0.5 mM. The reaction (1 mL) was started by adding an appropriate amount of enzyme. One enzyme unit (U) is defined as the amount of enzyme that produced 1 μmol of product (pNP) per min; specific activity is expressed as U/mg protein. A molar extinction coefficient of 15 mM^−1 cm^−1 for pNP is used for calculating enzyme activity.
KrCUT cutinase activity was assayed as described in Example 1, section 1.6 in the presence of various chemicals using p-NP palmitate as substrate under standard assay conditions. […] Cu^2+ at 1.0 mM had little effect. The enzyme was not affected by the metal-chelating agent EDTA even at 10 mM. The anionic surfactant SDS was a strong inhibitor of cutinase even at 0.01% retaining only 28% activity. […] Dimethylsulfoxide (at 30%) and dimethylformide (at 5%) inhibited cutinase activity by about 70%.

[3] = Protocol: Molar masses of the samples were determined with universal calibration with the refractive index detector and the viscosity detector. The universal calibration curve was based on polystyrene standards [Polymer Laboratories (Amherst, Mass.) and Aldrich (Oakville, ON)] using the molar masses determined by the manufacturer and the intrinsic viscosities measured by the apparatus. The software OmniSEC™ software from Viscotek was used for data collection and calibration. Separation in THF was performed by injecting 100 μL of 1.5-2 mg/mL solutions of standards or samples into thermostatically controlled SuperRes™ columns [35° C.; PAS-102, PAS102.5, PAS-103L, each 300 mm×8 mm; PolyAnalytik (London, ON)]. The flow rate was 1 mL/min.
Alternatively, a thin film was prepared from 1 g of commercial available PCL pellets and used for degradation. The polymer was dissolved in dichloromethane in a 1 L beaker. The solvent was allowed to evaporate overnight and the resulting film dried to constant weight under reduced pressure. Prior to enzymatic treatment the film was cut into pieces (20 mg) of approximately 1.5 cm×1.5 cm and thickness of approximately 0.1 mm. The reaction mixture was monitored by HPLC and SEC as described above.
To quantify this further, pellets of polycaprolactone (PCL) as well as films of PCL were incubated with KrCUT at various enzyme concentrations (1.25 μM, 2.5 μM, and 5 μM representing 4.7, 9.5 and 19 enzyme Units) at 37° C. The degradation of the polymer was followed over time by analyzing aliquots of the reaction mixture by HPLC for the detection of the released monomer (6-hydroxyhexanoic acid) and characterization of the remaining polymer by SEC after lypholization of the sample.

[4] = Long term stability of KrCUT in culture medium; format: physicochemical; details: for Activity (U/mL): culture medium at 4° C.
[5] = KrCUT activity in the presence of chelating agents; format: biochemical
Temperature optimum = format: biochemical; details: for Relative activity at temperature: highest activity set to 100%
Protocol: For estimation of the temperature optimum, buffer containing pNP-palmitate (see esterase assay in Example 20.1) was pre-incubated to reach the desired temperature, enzyme was then added, and the formation of pNP was assayed. For this experiment, Tris/HCl buffer was replaced with sodium phosphate buffer (50 mM, pH 8.0) to avoid a pH shift at the different temperatures.

[6] = Thermostability of purified enzymes; format: physicochemical; details: time 0 = 100%
Protocol: Enzyme thermostability was studied over a temperature range of 50-95° C. using the purified enzyme preparations. Aliquots were incubated at the desired temperature for 5, 10, 30, 60, and 120 minutes, chilled on ice, and assayed for remaining activity towards p-NP-palmitate (pNPP) at room temperature.

[7] = Degradation of polylactic acid; details: 2.5 μM; 2 Units

B1: KrCUT: mature Kineococcus radiotolerans cutinase, amino acids 34-294 of SEQ ID NO: 1; SEQ ID NO: 6 (protein)
chain: ATCSDVDVVFARGTGETPGLGVVGGPFVRSLTGELSDRTVTSHAVDYAASSSQASAGPGATAMSAHVREVAAACPSTRFVLGGYSQGATVTDIALGIRTGTTTGTPVPAELAGRVAAVVVFGNPLGLSGRTIATASSTYGPKSKDYCNSSDSVCGSAPKTGTGGHLSYASNGSTTDGARFAAGLVRAAGTPTTPTPTPTPTPVPTTCVRDSTRDHVAADRAVSLYGRAYARGSRDSLGATSSYNVVSLQQVEGGWRLVTAC
modifications: Kineococcus radiotolerans; (1)..(261) KrCUT (lacking residues 1-33 of ssKrCUT)
In the case of B1, the “thermostable up to” value ([1]; 10, 30 and 80 min heat treatment) is reported as “up to 45 °C”, the “activity left after heat treatment” value ([1]; 50° C. and above, 10 min) is reported as “virtually no activity left” and the effect of para-chloromercuribenzoate ([2]; 0.01 to 1 mM) is reported as “no discernible effect”. For the same molecule, the “effect of 2-propanol” value ([2]; 2-propanol exceeding 15%) was “strongly reduces enzyme activity”, the “effect of Cu2+” value ([2]; Cu2+ 1.0 mM) was “little effect” and the “effect of EDTA” value ([2]; EDTA 10 mM) was “not affected”. The “enzyme inhibition by Fe2+” value ([2]; Fe2+ 1 mM) was 50%, the “enzyme inhibition by Mg2+” value ([2]; Mg2+ 10 mM) was 19% and the “activity retained with SDS” value ([2]; SDS 0.01%) was 28%. For the same molecule, the “effect of SDS” value ([2]; SDS 0.1%) was “complete loss of activity”, the effect of alcohols ([2]; concentration above 15-20%) was “strong inhibiting effect” and the inhibition by dimethylformide ([2]; dimethylformide 5%) was “about 70%”. For the same molecule, the inhibition by dimethylsulfoxide ([2]; dimethylsulfoxide 30%) was “about 70%”, the “loss of activity by zinc ion” value ([2]; zinc ion 0.1 mM) was “over 90%” and the “effect of zinc ion on cutinase activity” value ([2]; zinc ion 1 mM) was “complete loss of activity”. For the same molecule, the “polymer peak in SEC” value ([3]; 2.5-5 μM, 24 hours) was “complete disappearance of the polymer”, the “6-hydroxy hexanoic acid from PCL pellets, % of the maximum yield” value ([3]; PCL pellets, 2.5 μM protein, 24 hours) was 18% and the “degradation of thin films of PCL” value ([3]; enzyme 1.25 μM, 24 hours) was “nearly completely degraded”. The “acidic monomers released from PCL” value ([3]; enzyme 2.5 or 5 μM, 6 hours, 37° C.) was roughly 90%, the “Mn of remaining PCL” value ([3]; time 0 h) was 44000 Daltons and the “Mw of remaining PCL” value ([3]; time 0 h) was 63300 Daltons. For the same molecule, the “PCL (SEC)” value ([3]; time 0 h) was 100%, the “acid (HPLC)” value ([3]; time 0 h) was 0% and the “Mn of remaining PCL” value ([3]; time 1 h) was 53800 Daltons. The “Mw of remaining PCL” value ([3]; time 1 h) was 64400 Daltons, the “PCL (SEC)” value ([3]; time 1 h) was 61% and the “acid (HPLC)” value ([3]; time 1 h) was 28%. For the same molecule, the “Mn of remaining PCL” value ([3]; time 3 h) was 55000 Daltons, the “Mw of remaining PCL” value ([3]; time 3 h) was 66600 Daltons and the “PCL (SEC)” value ([3]; time 3 h) was 27%. The “acid (HPLC)” value ([3]; time 3 h) was 60%, the “Mn of remaining PCL” value ([3]; time 6 h) was 58200 Daltons and the “Mw of remaining PCL” value ([3]; time 6 h) was 68100 Daltons. The “PCL (SEC)” value ([3]; time 6 h) was 12%, the “acid (HPLC)” value ([3]; time 6 h) was 85% and the “Mn of remaining PCL” value ([3]; time 24 h) was 69500 Daltons. For the same molecule, the “Mw of remaining PCL” value ([3]; time 24 h) was 74000 Daltons, the “PCL (SEC)” value ([3]; time 24 h) was 0.3% and the “acid (HPLC)” value ([3]; time 24 h) was 100%. For the same molecule, the “Activity (U/mL)” value ([4]; 0 months) was 3.0 ± 0.94 U/mL, the “Activity (U/mL)” value ([4]; 3 months) was 25.67 ± 0.94 U/mL and the “Activity (U/mL)” value ([4]; 4 months) was 17.13 ± 0.70 U/mL. For the same molecule, the “Activity (U/mL)” value ([4]; 17 months) was 16.66 ± 2.47 U/mL, the “Activity (U/mL)” value ([4]; 19 months) was 21.94 U/mL and the activity retained ([4]; room temperature, culture medium without additives, 4 months) was “full activity”. The “effect of EDTA on KrCUT activity” value ([5]; EDTA 10% w/v) was “does not inhibit”, the “activity retained in the presence of GLDA” value ([5]; GLDA 5% w/v) was 100% and the “Temp. opt. (° C.)” value (Temperature optimum) was 45 °C. The “Relative activity at temperature” value (Temperature optimum; 20 ° C.) was 83 ± 5%, the “Relative activity at temperature” value (Temperature optimum; 25 ° C.) was 84 ± 4% and the “Relative activity at temperature” value (Temperature optimum; 30 ° C.) was 83 ± 4%. The “Relative activity at temperature” value (Temperature optimum; 35 ° C.) was 84 ± 4%, the “Relative activity at temperature” value (Temperature optimum; 40 ° C.) was 89 ± 6% and the “Relative activity at temperature” value (Temperature optimum; 45 ° C.) was 100* %. The “Relative activity at temperature” value (Temperature optimum; 50 ° C.) was 90 ± 4%, the “Relative activity at temperature” value (Temperature optimum; 55 ° C.) was 38 ± 3% and the “Relative activity at temperature” value (Temperature optimum; 60 ° C.) was 15 ± 5%. The “Relative activity remaining (thermostability)” value (from here on “Relative activity remaining”) ([6]; 50° C., 5 min) was 61 ± 5%, the “Relative activity remaining” value ([6]; 50° C., 10 min) was 31 ± 4% and the “Relative activity remaining” value ([6]; 50° C., 30 min) was 12 ± 2%. For the same molecule, the “Relative activity remaining” value ([6]; 50° C., 60 min) was 6%, the “Relative activity remaining” value ([6]; 55° C., 5 min) was 45 ± 4% and the “Relative activity remaining” value ([6]; 55° C., 10 min) was 26 ± 4%. The “Relative activity remaining” value ([6]; 55° C., 30 min) was 4%, the “Relative activity remaining” value ([6]; 60° C., 5 min) was 34 ± 4% and the “Relative activity remaining” value ([6]; 60° C., 10 min) was 12 ± 2%. For the same molecule, the “Relative activity remaining” value ([6]; 65° C., 5 min) was 19 ± 2% and the PLA degraded [7] was “approximately 5%”.
